These binders were tested against T1, MHC class I allele A*0101 (bound via biotin to streptavidin-coated plate) (assay: iTopia peptide binding assay).
T1 construct: iTopia MHC class I monomer on the plate; placeholder peptide and b2M removed, then reconstituted with test peptide and fresh b2M; also called A1; HLA A1
Protocol: (§1) The 9 mers were tested for Peptide Binding, Off Rate and Affinity using iTopia Epitope Discovery System in accordance with the manufacturer's instructions. Briefly, 96 well microtitre plates coated with MHC molecules representing different MHC alleles are used to identify candidate peptides. […] Determinations are performed in duplicate using an ELISA plate reader and included allele specific positive controls.
(§2) i) Peptide Binding—This assay measures the ability of individual peptides to bind to the MHC molecules under standardized optimal binding conditions. The assay is performed for all the test peptides across the selected MHC alleles. The test peptides identified as “binders” are characterized further in terms of affinity and dissociation experiments.

Binder | % of positive control peptide binding [%]
SEAARTVKC (also called Peptide No 35) [5T4 9 mer peptide 35 SEAARTVKC] | 5
MPGGCSRGP (also called Peptide No 1) [5T4 9 mer peptide 1 MPGGCSRGP] | 0
TEVPTDLPA (also called Peptide No 42) [5T4 9 mer peptide 42 TEVPTDLPA] | 3
APFLASAVS (also called Peptide No 23) [5T4 9 mer peptide 23 APFLASAVS] | 1
SAQPPLPDQ (also called Peptide No 27) [5T4 9 mer peptide 27 SAQPPLPDQ] | 2
RLRLARLAL (also called Peptide No 8) [5T4 9 mer peptide 8 RLRLARLAL] | 3
CSRGPAAGD (also called Peptide No 3) [5T4 9 mer peptide 3 CSRGPAAGD] | 0
NRNLTEVPT (also called Peptide No 40) [5T4 9 mer peptide 40 NRNLTEVPT] | 1
VRNLFLTGN (also called Peptide No 47) [5T4 9 mer peptide 47 VRNLFLTGN] | 0
ECSEAARTV (also called Peptide No 34) [5T4 9 mer peptide 34 ECSEAARTV] | 2
PALCECSEA (also called Peptide No 32) [5T4 9 mer peptide 32 PALCECSEA] | 4
RTVKCVNRN (also called Peptide No 37) [5T4 9 mer peptide 37 RTVKCVNRN] | 7
VPTDLPAYV (also called Peptide No 43) [5T4 9 mer peptide 43 VPTDLPAYV] | 33
QCPALCECS (also called Peptide No 31) [5T4 9 mer peptide 31 QCPALCECS] | 3
ASAVSAQPP (also called Peptide No 25) [5T4 9 mer peptide 25 ASAVSAQPP] | 2

Each binder was assayed against T2, MHC class I allele A*0201 (bound via biotin to streptavidin-coated plate) (assay: iTopia peptide binding assay).
T2 construct: iTopia MHC class I monomer on the plate; placeholder peptide and b2M removed, then reconstituted with test peptide and fresh b2M; also called A2; HLA A2
Protocol: as §1, §2

Binder | % of positive control peptide binding [%]
SEAARTVKC (also called Peptide No 35) [5T4 9 mer peptide 35 SEAARTVKC] | 1
MPGGCSRGP (also called Peptide No 1) [5T4 9 mer peptide 1 MPGGCSRGP] | 9
TEVPTDLPA (also called Peptide No 42) [5T4 9 mer peptide 42 TEVPTDLPA] | 7
APFLASAVS (also called Peptide No 23) [5T4 9 mer peptide 23 APFLASAVS] | 15
SAQPPLPDQ (also called Peptide No 27) [5T4 9 mer peptide 27 SAQPPLPDQ] | 13
CSRGPAAGD (also called Peptide No 3) [5T4 9 mer peptide 3 CSRGPAAGD] | 3
NRNLTEVPT (also called Peptide No 40) [5T4 9 mer peptide 40 NRNLTEVPT] | 6
VRNLFLTGN (also called Peptide No 47) [5T4 9 mer peptide 47 VRNLFLTGN] | 5
ECSEAARTV (also called Peptide No 34) [5T4 9 mer peptide 34 ECSEAARTV] | 4
PALCECSEA (also called Peptide No 32) [5T4 9 mer peptide 32 PALCECSEA] | 19
RTVKCVNRN (also called Peptide No 37) [5T4 9 mer peptide 37 RTVKCVNRN] | 12
VPTDLPAYV (also called Peptide No 43) [5T4 9 mer peptide 43 VPTDLPAYV] | 29
QCPALCECS (also called Peptide No 31) [5T4 9 mer peptide 31 QCPALCECS] | 2
ASAVSAQPP (also called Peptide No 25) [5T4 9 mer peptide 25 ASAVSAQPP] | 5

Each binder was assayed against T3, MHC class I allele A*0301 (bound via biotin to streptavidin-coated plate) (assay: iTopia peptide binding assay).
T3 construct: iTopia MHC class I monomer on the plate; placeholder peptide and b2M removed, then reconstituted with test peptide and fresh b2M; also called A3; HLA A3
Protocol: as §1, §2

Binder | % of positive control peptide binding [%]
SEAARTVKC (also called Peptide No 35) [5T4 9 mer peptide 35 SEAARTVKC] | 0
MPGGCSRGP (also called Peptide No 1) [5T4 9 mer peptide 1 MPGGCSRGP] | 0
TEVPTDLPA (also called Peptide No 42) [5T4 9 mer peptide 42 TEVPTDLPA] | 0
APFLASAVS (also called Peptide No 23) [5T4 9 mer peptide 23 APFLASAVS] | 0
SAQPPLPDQ (also called Peptide No 27) [5T4 9 mer peptide 27 SAQPPLPDQ] | 0
RLRLARLAL (also called Peptide No 8) [5T4 9 mer peptide 8 RLRLARLAL] | 43
CSRGPAAGD (also called Peptide No 3) [5T4 9 mer peptide 3 CSRGPAAGD] | 5
NRNLTEVPT (also called Peptide No 40) [5T4 9 mer peptide 40 NRNLTEVPT] | 0
VRNLFLTGN (also called Peptide No 47) [5T4 9 mer peptide 47 VRNLFLTGN] | 0
ECSEAARTV (also called Peptide No 34) [5T4 9 mer peptide 34 ECSEAARTV] | 0
PALCECSEA (also called Peptide No 32) [5T4 9 mer peptide 32 PALCECSEA] | 0
RTVKCVNRN (also called Peptide No 37) [5T4 9 mer peptide 37 RTVKCVNRN] | 12
VPTDLPAYV (also called Peptide No 43) [5T4 9 mer peptide 43 VPTDLPAYV] | 0
QCPALCECS (also called Peptide No 31) [5T4 9 mer peptide 31 QCPALCECS] | 0
ASAVSAQPP (also called Peptide No 25) [5T4 9 mer peptide 25 ASAVSAQPP] | 0

These binders were tested against T4, MHC class I allele B*0702 (bound via biotin to streptavidin-coated plate) (assay: iTopia peptide binding assay).
T4 construct: iTopia MHC class I monomer on the plate; placeholder peptide and b2M removed, then reconstituted with test peptide and fresh b2M; also called B7; HLA B7
Protocol: as §1, §2

Binder | % of positive control peptide binding [%]
SEAARTVKC (also called Peptide No 35) [5T4 9 mer peptide 35 SEAARTVKC] | 0
MPGGCSRGP (also called Peptide No 1) [5T4 9 mer peptide 1 MPGGCSRGP] | 3
TEVPTDLPA (also called Peptide No 42) [5T4 9 mer peptide 42 TEVPTDLPA] | 0
APFLASAVS (also called Peptide No 23) [5T4 9 mer peptide 23 APFLASAVS] | 37
SAQPPLPDQ (also called Peptide No 27) [5T4 9 mer peptide 27 SAQPPLPDQ] | 3
RLRLARLAL (also called Peptide No 8) [5T4 9 mer peptide 8 RLRLARLAL] | 46
CSRGPAAGD (also called Peptide No 3) [5T4 9 mer peptide 3 CSRGPAAGD] | 3
NRNLTEVPT (also called Peptide No 40) [5T4 9 mer peptide 40 NRNLTEVPT] | 5
VRNLFLTGN (also called Peptide No 47) [5T4 9 mer peptide 47 VRNLFLTGN] | 3
ECSEAARTV (also called Peptide No 34) [5T4 9 mer peptide 34 ECSEAARTV] | 0
PALCECSEA (also called Peptide No 32) [5T4 9 mer peptide 32 PALCECSEA] | 0
RTVKCVNRN (also called Peptide No 37) [5T4 9 mer peptide 37 RTVKCVNRN] | 3
VPTDLPAYV (also called Peptide No 43) [5T4 9 mer peptide 43 VPTDLPAYV] | 11
QCPALCECS (also called Peptide No 31) [5T4 9 mer peptide 31 QCPALCECS] | 0
ASAVSAQPP (also called Peptide No 25) [5T4 9 mer peptide 25 ASAVSAQPP] | 0
